Reference: patent publication US11135163B2, “Peptide hydrogel properties and its applications” (Kansas State University Research Foundation, priority 2014, dated 2021)

What was measured:
HeLa cells = test: HeLa cell viability (CCK-8) in 3D h9e hydrogel; type: cell-based; conditions: 3-day treatment, various concentrations of camptothecin, in h9e hydrogel
Procedure: Cell culture and drug efficacy/diffusion tests: HeLa cells were grown in the hydrogel in 3D. Aliquots of HeLa cells solution were added into […] hydrogel with DMEM containing 10% FBS with a final peptide concentration of 0, 0.25, 0.5 and 1 wt %. 100 μl of cell mixture solution (3×10^4 cells per well) was seeded into a 96-well culture plate (Becton Dickinson Labware, Franklin Lakes, N.J.) and placed in an incubator (Nuair, Playmouth, Minn.) in a humidified 5% CO2 atmosphere at 37° C. for about 30 min. After complete hydrogelation, 10 μl of DMEM containing 0, 50 uM, 100 uM, or 200 uM camptothecin was added on top of the hydrogel to obtain camptothecin concentrations of 0 μM, 3.125 μM, 6.25 μM, and 12.5 μM, respectively, upon total diffusion in the hydrogel. Then, 50 ul of DMEM was carefully added to the top of the hydrogel to prevent drying during long-term incubation. All measurements were made at least in triplicate, and the plates were incubated for 3 days. A CCK-8 assay was used to determine cell viability after each treatment. 10 μL of CCK solution was added to each well. After 4 h of incubation, the absorbance at 450 nm was collected on a microplate reader (mQuant, Bio-Tek) and corrected by subtracting the background signal from a wall containing only 160 ul DMEM containing 10% FBS. […]

[1] = Gelation test of ECM ligand built-in or blended hydrogels; type: physicochemical; conditions: 0.5% peptide solution triggered with 0.5% BSA solution, 37° C., 30 min
Procedure: In this Example, an ECM ligand RGD built-in peptide (i.e., FLIVI-GSII-GPGGDGPGGDGRGD (SEQ ID NO:69)) was formulated into a hydrogel at 0.5% peptide solution triggered with 0.5% BSA solution. Gelation test was performed at 37° C. for 30 min. Gel strength was about 500 Pa, similar as the regular h9e hydrogel (FIG. 18.). Peptide synthesis followed the same procedure described in Example V.
Rheology Measurements: The hydrogel samples were characterized for mechanical properties. Gelation was determined right after the peptide solution triggered using either metal ion (i.e., Ca++) or albumin proteins (i.e., BSA) using C-VOR 150 rheometer system at both room temperature and 37° C. following our previous procedure. The maximum gel strength after 24 hours was used as the gel strength. The hydrogel samples after 24 hours was used and loaded in the probe system, and examined at a single frequency (1 Hz) and steady shear strain (1%). For shear-thinning experiments, the samples were subjected to shear and then observe the strain of the storage (G′) and loss (G″) modulus as a function of time following our previous procedures.
Regular h9e peptide described in Example VI can be blended with ECM ligands and functional proteins. […]

[2] = Instantaneous gelation time sweep of peptide sequences 1, 3 and 4; type: physicochemical; conditions: for final gel strength after 30 minute gelation time sweep: triggered with 100 mM CaCl2 solution (FIG. 12, 13)
Procedure: Similar to the methods used in U.S. 2013/0018004. Hydrogels were prepared with peptide 1, 3, and 4 alone, or mixture of peptide sequence 1 and 4 at 1:1 ratio. Hydrogels were triggered by calcium ions and BSA alone or co-trigger (calcium ions+BSA).

Compound | hydrogel formation [2] | final gel strength after 30 minute gelation time sweep [2] [Pa] | also measured
CC[C@@]1(O)C(=O)OCc2c1cc1n(c2=O)Cc2cc3ccccc3nc2-1 [Camptothecin, reference compound] |  |  | HeLa cell viability (HeLa cells): dose-dependent decrease in cell viability
FLIVI-GSII-GPGGDGPGGDGRGD (FLIVIGSIIGPGGDGPGGDGRGD; FLIVI-GSII N-terminal extension; Derivative of spider flagelliform silk protein and a trans-membrane segment of subunit IV in the dihydropyridine sensitive human muscle L-type calcium channel with built-in ECM ligand) [SEQ ID NO:69] |  |  | Gel strength [1]: about 500 Pa
FLIVIGSIIGPGVDPGGAD (Derivative of spider flagelliform silk protein and a trans-membrane segment of subunit IV in the dihydropyridine sensitive human muscle L-type calcium channel) [Sequence 4] | yielded a peptide hydrogel | 496 | gel strength ([2]; triggered with BSA): about 150 Pa; gel strength ([2]; triggered with calcium): about 550 Pa
FLIVIGSIIPGGGDGPGGD (Derivative of spider flagelliform silk protein and a trans-membrane segment of subunit IV in the dihydropyridine sensitive human muscle L-type calcium channel) [Sequence 3] | yielded a peptide hydrogel | 196 | 
